We go through two molecules from patent CN115819587A (BEIJING DONGFANG BIOTECH CO LTD; BEIJING JINGYI TAIXIANG …, dated 2023).

A value given as a limit tells only on which side of the number the result lay.

One assay addresses T1, huFc-NKG2E/CD94 (UniProt Q07444 94-240; Q13241 32-179, limits assumed).
T1 construct: Construct known only by its name; not shown: human Fc (huFc)
In words: ELISA, dilution series of MA-1 on huFc-NKG2E/CD94, anti-mouse Ig-HRP. (In general: In an ELISA, binding on a coated surface is turned into a signal by an enzyme label.)

The target of the next assay is T2, huFc-NKG2C/CD94 (UniProt P26717 94-231; Q13241 32-179, limits assumed).
T2 construct: Construct known only by its name; not shown: human Fc (huFc)
T2 sequence (P26717 94-231 limits assumed, chain 1 of 2): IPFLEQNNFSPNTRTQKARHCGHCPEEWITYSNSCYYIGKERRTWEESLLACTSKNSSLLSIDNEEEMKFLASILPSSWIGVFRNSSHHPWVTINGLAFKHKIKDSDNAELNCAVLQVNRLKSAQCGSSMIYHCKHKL
T2 sequence (Q13241 32-179 limits assumed, chain 2 of 2): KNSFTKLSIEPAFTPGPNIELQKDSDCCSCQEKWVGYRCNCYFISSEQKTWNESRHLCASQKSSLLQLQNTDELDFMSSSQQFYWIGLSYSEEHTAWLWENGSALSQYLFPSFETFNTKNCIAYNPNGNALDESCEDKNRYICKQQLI
In words: ELISA, dilution series of MA-1 on huFc-NKG2C/CD94, anti-mouse Ig-HRP.

The target of the next assay is T3, huFc-NKG2A/CD94 (UniProt P26715 94-233; Q13241 32-179, limits assumed).
T3 construct: Construct known only by its name; the order of the pieces follows the name huFc-NKG2A; not shown: human Fc (huFc)
T3 sequence (P26715 94-233 limits assumed, chain 1 of 2): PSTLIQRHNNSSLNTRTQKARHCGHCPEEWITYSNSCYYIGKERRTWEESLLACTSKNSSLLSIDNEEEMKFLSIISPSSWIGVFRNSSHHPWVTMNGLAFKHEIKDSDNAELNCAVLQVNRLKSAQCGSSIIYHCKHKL
T3 sequence (Q13241 32-179 limits assumed, chain 2 of 2): as the sequence (Q13241 32-179 limits assumed, chain 2 of 2) above
In words: phage supernatant ELISA on huFc-NKG2A/CD94 against huFc-NKG2C/CD94 and huFc-NKG2E/CD94; criterion of selection met by MA-1.

T1 sequence (Q07444 94-240 limits assumed, chain 1 of 2): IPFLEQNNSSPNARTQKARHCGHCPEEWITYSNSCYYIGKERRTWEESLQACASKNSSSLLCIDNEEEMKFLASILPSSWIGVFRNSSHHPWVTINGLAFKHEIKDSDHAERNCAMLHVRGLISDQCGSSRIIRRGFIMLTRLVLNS
T1 sequence (Q13241 32-179 limits assumed, chain 2 of 2): as the sequence (Q13241 32-179 limits assumed, chain 2 of 2) above

B1: MA-1 鼠源全抗分子 (mouse IgG2a / mouse Ck full antibody) (antibody, V domains shown)
VH: EVKLEESGGGLVKPGGSLKLSCAASGFAFSDYDMSWVRQTPEKRLEWVATISSGGSYTYYPDSVKGRFTISRDNARNTLYLQMSSLRSEDTALYYCTSPRQVGLRKAFDYWGQGTTLTVSS
VL: DIVVTQSPALMSASPGEKVTMTCSASSSVSYMYWYQQKPRSSPKSWIYLTSNLASGVPARFSGSGSGTSYSLTISSMEAEDAATYYCQQWSSNPFTFGSGTKLEIKR
notes: plain joining would double 'AD' at the junction; also called MA-1鼠源抗体; 抗NKG2A单克隆抗体MA-1
As for B1, the binding result with huFc-NKG2E/CD94 and in the assay with huFc-NKG2C/CD94 was “no binding” in each case.

B2: MA-1 噬菌体单克隆抗体 (phage-displayed single-chain antibody MA-1) (scFv)
chain: EVKLEESGGGLVKPGGSLKLSCAASGFAFSDYDMSWVRQTPEKRLEWVATISSGGSYTYYPDSVKGRFTISRDNARNTLYLQMSSLRSEDTALYYCTSPRQVGLRKAFDYWGQGTTLTVSSDIVVTQSPALMSASPGEKVTMTCSASSSVSYMYWYQQKPRSSPKSWIYLTSNLASGVPARFSGSGSGTSYSLTISSMEAEDAATYYCQQWSSNPFTFGSGTKLEIKRAD
With B2, in the assay with huFc-NKG2A/CD94, the “OD450nm ratio, NKG2A against NKG2C/E” value was no less than 3 fold.
